Data on 20 variants can be found in the supplement of paper PMC7125110.

± gives the standard error. Variants at the floor of the assay were thinned out.

B1: glmS ribozyme (parent)
chain: AUAAAAGCGCCAGAACUACAGAAAUGUAGUUGACGAGGAGGAGGUUUAUCGAAUUUUCGGCGGAUGCCUCCAAA

Common to all, as to details: with glucosamine-6-phosphate
Data set [1] covers variants of B1. As to the kind of experiment: self-cleavage kobs at 640 uM GlcN6P; higher = faster cleavage; RNA array. An outline of the steps: (§1)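 Sequenced MiSeq chips were the platform: E. coli RNA polymerase transcribed barcoded ribozyme variants on them in situ, and a hybridised Cy3 probe tracked these at 37 °C. After glucosamine-6-phosphate (40 μM to 10 mM) in HEPES/KCl/Mg(OAc)2 buffer was flowed in, tiles were imaged over ~14 h. Signals normalised to baseline and to non-cleaving reference variants were reduced to per-tile medians and fit to one- or two-exponential decays to obtain kobs. kcat and KM were derived through weighted Michaelis–Menten fits across concentrations.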

Variants of B1 are the subject of data set [2]. As to the kind of experiment: self-cleavage kobs at 2500 uM GlcN6P; higher = faster cleavage; RNA array. An outline of the steps: as §1
In data set [3] the parent is B1. As to the kind of experiment: self-cleavage kobs at 10000 uM GlcN6P; higher = faster cleavage; RNA array. An outline of the steps:
as §1

AUAAAAGCGCUAGACCUACAGAAAUGUACUUUACGAGGAGGAGGUUUAUGGAAUUUUCGGCGGAUGCCUCCAAA: the “self-cleavage kobs at 640 uM GlcN6P” value in data set [1] amounted to 0.000512 ± 0.00014 s⁻¹. The “self-cleavage kobs at 2500 uM GlcN6P” value in data set [2] worked out at 0.000149 ± 3.9e-05 s⁻¹.
On to AUAAAAGCGGCAGAACUACAGAAAUGUAGUUGACGAGUAGGAGGUUUAGCGAAUUUUGGGCGGCAGUUUCCAAA, for which the “self-cleavage kobs at 640 uM GlcN6P” value in data set [1] stood at 0.000308 ± 8.3e-05 s⁻¹.
Regarding AUAAAAGCGCCAUAACUACAGAAAUGUAGUUGACGAGGAGGCGGUUUUUCGACUUUUCGCCGGAUGCCUCCAAA, the “self-cleavage kobs at 640 uM GlcN6P” value in data set [1] is < 1e-05 s⁻¹. Moreover, in data set [2], the “self-cleavage kobs at 2500 uM GlcN6P” value was < 1e-05 s⁻¹.
As for AUAAAAGCGCCAGAACUACAGAAAUGUAGUUGAAGAGGAGGAUGUUUAUCGAAUCUUCGGCGGAUGCCUCCAAA, the “self-cleavage kobs at 640 uM GlcN6P” value in data set [1] was < 1e-05 s⁻¹. For the same variant, the “self-cleavage kobs at 2500 uM GlcN6P” value in data set [2] is < 1e-05 s⁻¹.
AUAAAAGCGCCAGAACUACAGAAAUGUAGUUGACAAGGAGGAGGUUUAUGGAAUUUUCGGCGGAUGCUUGCAAA: the “self-cleavage kobs at 640 uM GlcN6P” value in data set [1] was 0.000738 ± 0.00024 s⁻¹. The “self-cleavage kobs at 2500 uM GlcN6P” value in data set [2] was found to be 0.000111 ± 4.4e-05 s⁻¹.
As to AUAAAAGCGCCAGAAUUACAGAAAUGUAGUUGACGAGGAGGAGGUUUAUCGAAUUUUUGGCGUAUGCCUCCAAA, the “self-cleavage kobs at 640 uM GlcN6P” value in data set [1] was < 1e-05 s⁻¹. Further, the “self-cleavage kobs at 10000 uM GlcN6P” value in data set [3] is < 1e-05 s⁻¹.
For AUAAAAGAGACAGAACUACAGAAAUGUAGUUGAAGAGGAGGAGGUUUAUCGAAUUUUCGGCGGAUGCCUCCAAA, the “self-cleavage kobs at 640 uM GlcN6P” value in data set [1] was < 1e-05 s⁻¹.
Turning to AUAAAAGCGCCAGAACUACAGAAAUGUAGUUGACUAGGCGGAGGUUUAUCGAAUUUUCGGCGGAUGCCUCUAAA, the “self-cleavage kobs at 640 uM GlcN6P” value in data set [1] is < 1e-05 s⁻¹. In addition, the “self-cleavage kobs at 2500 uM GlcN6P” value in data set [2] is < 1e-05 s⁻¹.
Consider AUAAAAGCGCCAGAAUUACAGAAAUGUAGUUGACGAGGAGGAGGAUUAUCGAAUUUUCGGCGGAUGCCUGCAAA, for which, in data set [1], the “self-cleavage kobs at 640 uM GlcN6P” value is 0.000277 ± 6e-05 s⁻¹. For the same variant, the “self-cleavage kobs at 2500 uM GlcN6P” value in data set [2] was 0.000385 ± 9.2e-05 s⁻¹.
Turning to AUAAAGGCGCCAGAACUACAGAAAUGUAGUUGACGAGGAGGAGGUUUAUCGUAUUUUCGUCGGAUGCCUCCAAA, the “self-cleavage kobs at 640 uM GlcN6P” value in data set [1] is < 1e-05 s⁻¹. Further, the “self-cleavage kobs at 2500 uM GlcN6P” value in data set [2] is < 1e-05 s⁻¹.
As to AUAAAAGCGCCAGAAUUACAGAAAUGUAGUUGACGUGUAGGAGGUGUAUCGAAUUUUCGGCGGAUGCCUCCAAA, the “self-cleavage kobs at 640 uM GlcN6P” value in data set [1] was < 1e-05 s⁻¹. Further, in data set [2], the “self-cleavage kobs at 2500 uM GlcN6P” value is < 1e-05 s⁻¹. For the same variant, the “self-cleavage kobs at 10000 uM GlcN6P” value in data set [3] is < 1e-05 s⁻¹.
As for GUAAAAGCGCCUGAACUACAGAAAUGUAGUUGACGAGGAGGAGGUUUAUCGAAUUUUCGGCGGCUGCCUCCAAA, in data set [1], the “self-cleavage kobs at 640 uM GlcN6P” value turned out to be 0.000103 ± 3.6e-05 s⁻¹. Further, the “self-cleavage kobs at 2500 uM GlcN6P” value in data set [2] worked out at 0.000485 ± 0.00019 s⁻¹. Moreover, the “self-cleavage kobs at 10000 uM GlcN6P” value in data set [3] worked out at 0.000643 ± 0.00015 s⁻¹.
With AUAAAAGCGCCAGAUAUACAGAAAUGUAGUUGACGAGGAGGAGGUUAAUCGAAUUUUCGGGGGAUGCGUCCAAA, in data set [1], the “self-cleavage kobs at 640 uM GlcN6P” value was 8.84e-05 ± 3.3e-05 s⁻¹.
Take AUAAAUGCGCAAGAACUACAGAAAUGUAGUUGGCGAGGAGGAGGUUCAACUAUUUUUCUGCGGAUGCCUCCAAA: in data set [1], the “self-cleavage kobs at 640 uM GlcN6P” value is < 1e-05 s⁻¹. Further, the “self-cleavage kobs at 2500 uM GlcN6P” value in data set [2] is < 1e-05 s⁻¹.
AUAAAAGCGCCAAAACUACAGAAAUGUAGUUGACGAGGAGAAGGUUUAUUUAAUUUUCGGCGGAUGUCUCCAAA: the “self-cleavage kobs at 640 uM GlcN6P” value in data set [1] is < 1e-05 s⁻¹.
In the case of AUAAAAGGUCCAGAACUACAGAAAUGUAGUUGACGAGGAGGAGGUUUAUCGUAUUUUCGGCGGAUGCCUCCAAA, in data set [1], the “self-cleavage kobs at 640 uM GlcN6P” value was < 1e-05 s⁻¹. Also, the “self-cleavage kobs at 2500 uM GlcN6P” value in data set [2] was < 1e-05 s⁻¹.
Regarding AUAAAAGCGCGGGAACUACAGAAAUGUAGUUGACGAGGAGGAGGGUAAUCGAAUUUUCGGCGGAUGCCUCGAAA, the “self-cleavage kobs at 640 uM GlcN6P” value in data set [1] was < 1e-05 s⁻¹. Also, the “self-cleavage kobs at 2500 uM GlcN6P” value in data set [2] is < 1e-05 s⁻¹.
Take AUAAAAGCGCCAGAACUACAGAAAUGUAGUUGACGAGGAGGUGGUUUAUCGAAUUUUCGCUGGAUGCCUCCAAA: the “self-cleavage kobs at 640 uM GlcN6P” value in data set [1] is < 1e-05 s⁻¹.
Consider AUAAAAUCGCAAGAACUACAGAAAUGUAGUUGACGAGGAGGAGGUUUAUGGAAUUUUCGGCGGAUGCCUUCAAA, for which the “self-cleavage kobs at 640 uM GlcN6P” value in data set [1] was 0.000451 ± 0.00011 s⁻¹. For the same variant, the “self-cleavage kobs at 2500 uM GlcN6P” value in data set [2] amounted to 0.000157 ± 3.1e-05 s⁻¹. The “self-cleavage kobs at 10000 uM GlcN6P” value in data set [3] was determined as 0.00016 ± 3.1e-05 s⁻¹.
For AUAAAAGCGCCAGAACUACAGAAAUGUAGUUGACGAGGAGGAGGUUUGCCGAAUUUUCGGCGGAUACCUCCAAA, the “self-cleavage kobs at 640 uM GlcN6P” value in data set [1] is < 1e-05 s⁻¹.
